According to US5683867, “Systematic evolution of ligands by exponential enrichment: blended SELEX” (NeXstar Pharmaceuticals, Inc.):

Molecular target: neutrophil elastase (HNE) (Homo sapiens, UniProt P08246 P08246:30-267)
Experiment: inhibition; blended ligand (end not specified for Ki); chromogenic substrate, 10 nM elastase, 2 mM MgCl2, 150 mM NaCl, 25 C; >50% inhibition at 70 nM for 3' conjugate
Description: The assay for elastase inhibition is based on the use of a chromogenic tetrapeptide substrate. […] The rate of p-nitroanilide generation in the absence of inhibitor was used as the control.

Chain of neutrophil elastase (HNE) (P08246 30-267, one chain of several): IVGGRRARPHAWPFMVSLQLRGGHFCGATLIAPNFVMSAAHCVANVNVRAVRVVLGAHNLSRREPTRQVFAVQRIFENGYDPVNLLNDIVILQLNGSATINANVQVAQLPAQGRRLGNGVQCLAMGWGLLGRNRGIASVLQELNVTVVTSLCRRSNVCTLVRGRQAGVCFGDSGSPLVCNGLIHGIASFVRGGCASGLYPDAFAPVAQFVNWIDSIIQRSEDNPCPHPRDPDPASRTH

B1: DNA-17 3'-end peptide conjugate (ssDNA)
DNA: TAGCGATACTGCGTGGGTTGGGGCGGGTAGGGCCAGCAGTCTCGTGCGGTACTTGAGCA
modifications: 3' four 18-atom ethylene glycol spacers and thiol coupled to N-methoxysuccinyl-Ala-Ala-Pro-Val-chloromethyl ketone
Binder B1 has a Ki of 30 nM.
